Experimental data published in patent EP4554620A1.

Legend:
[1] = target: Human TIGIT residues 23-128 PRO79A mutant (human) (UniProt Q495A1); assay: SPR, capture immobilization, TIGIT alanine mutants
[2] = target: Human TIGIT residues 23-128 LEU73A mutant (human) (UniProt Q495A1); assay: SPR, capture immobilization, TIGIT alanine mutants
[3] = target: Human TIGIT residues 23-128 ILE68A mutant (human) (UniProt Q495A1); assay: SPR, capture immobilization, TIGIT alanine mutants
[4] = target: Human TIGIT residues 23-128 LEU73A/HIS76A double mutant (human) (UniProt Q495A1); assay: SPR, capture immobilization, TIGIT alanine mutants
Chain of Human TIGIT residues 23-128 LEU73A/HIS76A double mutant (human) (Q495A1 other isoform, or with tags, fused parts or gaps mutant, form in doubt): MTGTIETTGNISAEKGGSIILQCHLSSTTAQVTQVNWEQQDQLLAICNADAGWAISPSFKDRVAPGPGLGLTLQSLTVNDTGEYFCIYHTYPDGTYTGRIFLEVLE

[5] = target: Human TIGIT residues 23-128 ASP63A mutant (human) (UniProt Q495A1); assay: SPR, capture immobilization, TIGIT alanine mutants
Chain of Human TIGIT residues 23-128 ASP63A mutant (human) (Q495A1 other isoform, or with tags, fused parts or gaps mutant, form in doubt): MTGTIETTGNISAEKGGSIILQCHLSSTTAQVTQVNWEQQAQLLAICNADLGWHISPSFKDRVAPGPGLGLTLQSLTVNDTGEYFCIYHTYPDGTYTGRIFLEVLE

[6] = target: Human TIGIT residues 23-128 HIS76A mutant (human) (UniProt Q495A1); assay: SPR, capture immobilization, TIGIT alanine mutants
Chain of Human TIGIT residues 23-128 HIS76A mutant (human) (Q495A1 other isoform, or with tags, fused parts or gaps mutant, form in doubt): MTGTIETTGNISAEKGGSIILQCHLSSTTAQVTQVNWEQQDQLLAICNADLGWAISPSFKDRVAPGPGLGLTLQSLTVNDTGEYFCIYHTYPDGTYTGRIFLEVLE

[7] = target: Human TIGIT residues 23-128 with C-terminal HIS tag (human) (UniProt Q495A1); assay: SPR, amine coupling, pH 7.4 against pH 6.0
Chain of Human TIGIT residues 23-128 with C-terminal HIS tag (human) (Q495A1 23-128, form in doubt): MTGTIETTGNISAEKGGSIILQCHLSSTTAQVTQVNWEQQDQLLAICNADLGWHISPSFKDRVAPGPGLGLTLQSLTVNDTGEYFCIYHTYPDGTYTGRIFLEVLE

Chain of Human TIGIT residues 23-128 ILE68A mutant (human) (Q495A1 other isoform, or with tags, fused parts or gaps mutant, form in doubt): as the sequence (Q495A1 23-128, form in doubt) above, with I46A counted along it
Chain of Human TIGIT residues 23-128 PRO79A mutant (human) (Q495A1 other isoform, or with tags, fused parts or gaps mutant, form in doubt): as the sequence (Q495A1 23-128, form in doubt) above, with P57A counted along it
Chain of Human TIGIT residues 23-128 LEU73A mutant (human) (Q495A1 other isoform, or with tags, fused parts or gaps mutant, form in doubt): as the sequence (Q495A1 23-128, form in doubt) above, with L51A counted along it

## A1217 (Ociperlimab) (antibody)
[1]
  fold lower binding affinity against WT TIGIT: 3 fold
[2]
  fold reduction in binding affinity against WT TIGIT: 7 fold
[3]
  fold decrease in binding affinity against WT TIGIT: 30 fold
  fold reduction of binding against wild-type TIGIT: > 10 fold
[4]
  fold reduction of binding against wild-type TIGIT: > 10 fold
[5]
  fold decrease in binding affinity against WT TIGIT: 7 fold
[6]
  fold reduction of binding against wild-type TIGIT: > 10 fold
[7]
  fold increase of binding affinity (KD) from pH 7.4 to pH 6.0: 17 fold
